# The supplement of paper PMC10065799, “High-throughput profiling of sequence recognition by tyrosine kinases and SH2 domains using bacterial peptide display” (eLife, 2023)
# Target: Hck (UniProt P08631)
# Assay: phosphorylation enrichment, bacterial display (enrichment ratio); higher = better substrate or ligand; peptides without Tyr show the background
# 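Note: 11-residue human phosphosite peptides and single-mutation variants displayed on the E. coli surface, counted by deep sequencing, each peptide's frequency after selection divided by its frequency in the unselected input library; frequency after pTyr selection over input frequency; kinase dosed for 20-30% of maximal phosphorylation in three min.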
# Hck, sequence (P08631 whole entry, looked up): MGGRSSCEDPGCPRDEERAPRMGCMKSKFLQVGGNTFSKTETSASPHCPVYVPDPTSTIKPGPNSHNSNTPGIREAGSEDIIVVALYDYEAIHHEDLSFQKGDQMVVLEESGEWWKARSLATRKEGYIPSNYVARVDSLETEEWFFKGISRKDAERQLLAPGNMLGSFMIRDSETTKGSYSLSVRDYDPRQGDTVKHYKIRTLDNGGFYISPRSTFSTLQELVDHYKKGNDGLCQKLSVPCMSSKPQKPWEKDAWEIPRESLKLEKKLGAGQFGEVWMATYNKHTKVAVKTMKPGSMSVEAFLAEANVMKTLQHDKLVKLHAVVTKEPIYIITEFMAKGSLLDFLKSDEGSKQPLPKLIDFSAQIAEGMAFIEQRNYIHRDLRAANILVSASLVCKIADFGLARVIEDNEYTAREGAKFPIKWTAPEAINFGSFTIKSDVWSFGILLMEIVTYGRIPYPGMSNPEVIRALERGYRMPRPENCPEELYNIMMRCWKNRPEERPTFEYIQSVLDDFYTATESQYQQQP
row,Sequence,phosphorylation enrichment
1,VRFMAYTDETF [F8_Y450],0.487
2,SVVVLYEPPEV [TP53_Y220_P219L],1.42
3,KKLHEYNTQFQ [PIK3R1_Y452],0.367
4,ALRHFYKLNII [ETV6_Y402_YF],0.482
5,NREGVYRVFAP [TGFBI_Y537_T538R],1.79
6,FQCLRYIKQLG [SAMHD1_Y146_R143C],0.452
7,NACGLYHKMNG [GATA5_Y216],0.533
8,EFFENYIEELK [PARP4_Y218_F215Y_YF],0.533
9,VSLLPYFPAIM [IPO4_Y518_A513V],0.541
10,VMAVAYRLAEQ [HK1_Y461_T457M],0.445
11,VICRRYLVMQR [IL3RA_Y328],0.487
12,SIKDKHVTALF [KCNH2_Y611_Y611H_YF],0.463
13,LDTSQYFRLFN [CPT2_Y217_M214T],0.61
14,AGTILSHAHLD [ASS1_Y291_Y291S],0.412
15,TNRSFYFKPSL [NUP153_Y382_V381F],0.533
16,SSFDTYHLSRE [KIR3DL2_Y253_I252T_YF],3.51
17,APSEFYDGDHD [HDAC3_Y414_N411S],0.528

row,Sequence,phosphorylation enrichment
1,TYAVSYLPDMS [FLNC_Y1602_T1599A],0.732
2,TDGIAYEFRVI,0.655
3,FLQEIYNSNNQ [FGG_Y140_YF],1.69
4,GNLLIYTEFGK [HGD_Y166],4.65
5,QTENKYDSVSG [EIF2AK3_Y565],0.783
6,VVPGSYDRLRV [IFT172_Y260_L257P],0.486
7,RAILDYIASKF [GSTA3_Y74_N73D_YF],0.395
8,VRTGIYHGREP [PIK3CA_Y361_G364R],0.638
9,WDSSGYWTPEE [PAPPA2_Y908_C903W],0.449
10,EWLRRYLKNGK [HLA-C_Y195_E197K],0.522
11,LANNEYFFRVC,0.53
12,FDSPFYRDSLP [TSC1_Y508],0.47
13,HNLYSYPTKYE [MYO3A_Y1396_H1400Y],8.88
14,GTAPSYGNPSS [CD19_Y378],0.336
15,SVTCTGSPALN [TP53_Y126_Y126G],0.459
16,AEPHTYEEPGR [EPHA8_Y616],0.485

# Target: Jak2 (UniProt O60674)
# Assay: as above
# Jak2, sequence (O60674 whole entry, looked up): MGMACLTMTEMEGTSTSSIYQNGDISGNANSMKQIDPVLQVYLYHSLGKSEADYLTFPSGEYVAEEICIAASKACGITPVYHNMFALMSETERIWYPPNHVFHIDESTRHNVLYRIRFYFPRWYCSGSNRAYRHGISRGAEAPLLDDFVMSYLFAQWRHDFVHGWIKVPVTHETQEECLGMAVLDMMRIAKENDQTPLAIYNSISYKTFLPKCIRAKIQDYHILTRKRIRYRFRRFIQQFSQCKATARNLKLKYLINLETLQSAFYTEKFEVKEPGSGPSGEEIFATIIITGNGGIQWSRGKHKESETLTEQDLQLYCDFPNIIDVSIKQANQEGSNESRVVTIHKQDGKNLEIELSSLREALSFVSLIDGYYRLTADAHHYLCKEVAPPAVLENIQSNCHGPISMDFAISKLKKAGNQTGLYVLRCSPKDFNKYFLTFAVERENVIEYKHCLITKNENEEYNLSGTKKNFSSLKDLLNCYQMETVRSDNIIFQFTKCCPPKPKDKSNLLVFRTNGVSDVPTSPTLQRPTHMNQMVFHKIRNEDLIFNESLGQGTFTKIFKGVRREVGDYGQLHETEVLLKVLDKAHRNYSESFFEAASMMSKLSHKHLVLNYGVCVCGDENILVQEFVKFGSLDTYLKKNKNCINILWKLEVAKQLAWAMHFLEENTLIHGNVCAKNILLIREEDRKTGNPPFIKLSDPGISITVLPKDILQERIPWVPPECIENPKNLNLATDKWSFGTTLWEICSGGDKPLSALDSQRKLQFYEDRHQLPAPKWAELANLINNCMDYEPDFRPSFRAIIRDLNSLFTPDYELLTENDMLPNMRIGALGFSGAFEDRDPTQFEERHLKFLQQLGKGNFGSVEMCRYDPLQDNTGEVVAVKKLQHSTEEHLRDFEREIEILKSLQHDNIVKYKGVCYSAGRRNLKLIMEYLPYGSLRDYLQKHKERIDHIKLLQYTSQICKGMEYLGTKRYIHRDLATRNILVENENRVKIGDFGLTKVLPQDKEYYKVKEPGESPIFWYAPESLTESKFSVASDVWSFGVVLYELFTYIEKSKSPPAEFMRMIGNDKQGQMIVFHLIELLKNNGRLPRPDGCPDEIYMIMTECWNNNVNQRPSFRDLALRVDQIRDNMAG
row,Sequence,phosphorylation enrichment
1,VRFMAYTDETF [F8_Y450],1.2
2,SVVVLYEPPEV [TP53_Y220_P219L],1.06
3,KKLHEYNTQFQ [PIK3R1_Y452],0.43
4,ALRHFYKLNII [ETV6_Y402_YF],0.875
5,NREGVYRVFAP [TGFBI_Y537_T538R],0.484
6,FQCLRYIKQLG [SAMHD1_Y146_R143C],1.11
7,NACGLYHKMNG [GATA5_Y216],0.798
8,EFFENYIEELK [PARP4_Y218_F215Y_YF],1.41
9,VSLLPYFPAIM [IPO4_Y518_A513V],2.06
10,VMAVAYRLAEQ [HK1_Y461_T457M],1.04
11,VICRRYLVMQR [IL3RA_Y328],0.894
12,SIKDKHVTALF [KCNH2_Y611_Y611H_YF],0.441
13,LDTSQYFRLFN [CPT2_Y217_M214T],4.85
14,AGTILSHAHLD [ASS1_Y291_Y291S],0.707
15,TNRSFYFKPSL [NUP153_Y382_V381F],3.54
16,SSFDTYHLSRE [KIR3DL2_Y253_I252T_YF],0.7
17,APSEFYDGDHD [HDAC3_Y414_N411S],1.32

row,Sequence,phosphorylation enrichment
1,TYAVSYLPDMS [FLNC_Y1602_T1599A],0.924
2,TDGIAYEFRVI,1.32
3,FLQEIYNSNNQ [FGG_Y140_YF],0.907
4,GNLLIYTEFGK [HGD_Y166],1.14
5,QTENKYDSVSG [EIF2AK3_Y565],1.98
6,VVPGSYDRLRV [IFT172_Y260_L257P],0.462
7,RAILDYIASKF [GSTA3_Y74_N73D_YF],0.755
8,VRTGIYHGREP [PIK3CA_Y361_G364R],0.491
9,WDSSGYWTPEE [PAPPA2_Y908_C903W],1.28
10,EWLRRYLKNGK [HLA-C_Y195_E197K],0.679
11,LANNEYFFRVC,1.38
12,FDSPFYRDSLP [TSC1_Y508],0.594
13,HNLYSYPTKYE [MYO3A_Y1396_H1400Y],0.606
14,GTAPSYGNPSS [CD19_Y378],0.594
15,SVTCTGSPALN [TP53_Y126_Y126G],0.741
16,AEPHTYEEPGR [EPHA8_Y616],0.749

# Target: MERTK (UniProt Q12866)
# Assay: as above
# MERTK, sequence (Q12866 whole entry, looked up): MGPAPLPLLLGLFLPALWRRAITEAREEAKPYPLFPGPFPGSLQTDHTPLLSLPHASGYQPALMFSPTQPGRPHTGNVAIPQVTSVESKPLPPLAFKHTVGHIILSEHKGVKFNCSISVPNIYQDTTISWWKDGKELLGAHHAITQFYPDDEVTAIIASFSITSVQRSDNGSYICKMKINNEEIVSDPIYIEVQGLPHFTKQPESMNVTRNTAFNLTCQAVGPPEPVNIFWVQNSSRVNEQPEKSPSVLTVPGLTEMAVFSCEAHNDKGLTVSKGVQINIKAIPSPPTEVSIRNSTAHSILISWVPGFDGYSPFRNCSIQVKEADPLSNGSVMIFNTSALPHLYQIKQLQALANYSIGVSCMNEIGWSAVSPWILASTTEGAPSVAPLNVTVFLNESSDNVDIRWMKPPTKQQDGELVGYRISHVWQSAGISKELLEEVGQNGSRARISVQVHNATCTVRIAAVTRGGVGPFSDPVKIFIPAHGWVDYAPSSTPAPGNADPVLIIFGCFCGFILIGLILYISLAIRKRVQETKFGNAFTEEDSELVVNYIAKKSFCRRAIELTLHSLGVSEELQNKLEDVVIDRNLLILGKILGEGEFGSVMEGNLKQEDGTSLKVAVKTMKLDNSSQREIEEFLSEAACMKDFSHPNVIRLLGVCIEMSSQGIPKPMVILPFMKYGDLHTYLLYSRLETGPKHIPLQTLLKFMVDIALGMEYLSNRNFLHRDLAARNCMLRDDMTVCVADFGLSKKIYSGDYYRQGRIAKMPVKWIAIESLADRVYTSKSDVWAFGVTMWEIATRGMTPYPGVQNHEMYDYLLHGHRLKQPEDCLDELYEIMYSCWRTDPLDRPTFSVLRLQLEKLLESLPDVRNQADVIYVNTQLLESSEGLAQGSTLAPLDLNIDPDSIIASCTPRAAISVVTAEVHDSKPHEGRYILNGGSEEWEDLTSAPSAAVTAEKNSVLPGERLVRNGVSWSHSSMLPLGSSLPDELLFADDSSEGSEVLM
row,Sequence,phosphorylation enrichment
1,VRFMAYTDETF [F8_Y450],0.456
2,SVVVLYEPPEV [TP53_Y220_P219L],3.56
3,KKLHEYNTQFQ [PIK3R1_Y452],0.348
4,ALRHFYKLNII [ETV6_Y402_YF],0.44
5,NREGVYRVFAP [TGFBI_Y537_T538R],0.533
6,FQCLRYIKQLG [SAMHD1_Y146_R143C],0.423
7,NACGLYHKMNG [GATA5_Y216],0.624
8,EFFENYIEELK [PARP4_Y218_F215Y_YF],0.425
9,VSLLPYFPAIM [IPO4_Y518_A513V],0.369
10,VMAVAYRLAEQ [HK1_Y461_T457M],0.46
11,VICRRYLVMQR [IL3RA_Y328],0.531
12,SIKDKHVTALF [KCNH2_Y611_Y611H_YF],0.469
13,LDTSQYFRLFN [CPT2_Y217_M214T],0.532
14,AGTILSHAHLD [ASS1_Y291_Y291S],0.289
15,TNRSFYFKPSL [NUP153_Y382_V381F],2.6
16,SSFDTYHLSRE [KIR3DL2_Y253_I252T_YF],0.613
17,APSEFYDGDHD [HDAC3_Y414_N411S],0.51

row,Sequence,phosphorylation enrichment
1,TYAVSYLPDMS [FLNC_Y1602_T1599A],1.6
2,TDGIAYEFRVI,0.495
3,FLQEIYNSNNQ [FGG_Y140_YF],0.514
4,GNLLIYTEFGK [HGD_Y166],4.24
5,QTENKYDSVSG [EIF2AK3_Y565],0.615
6,VVPGSYDRLRV [IFT172_Y260_L257P],0.469
7,RAILDYIASKF [GSTA3_Y74_N73D_YF],0.375
8,VRTGIYHGREP [PIK3CA_Y361_G364R],0.291
9,WDSSGYWTPEE [PAPPA2_Y908_C903W],0.502
10,EWLRRYLKNGK [HLA-C_Y195_E197K],0.581
11,LANNEYFFRVC,0.517
12,FDSPFYRDSLP [TSC1_Y508],0.409
13,HNLYSYPTKYE [MYO3A_Y1396_H1400Y],14.8
14,GTAPSYGNPSS [CD19_Y378],0.432
15,SVTCTGSPALN [TP53_Y126_Y126G],0.385
16,AEPHTYEEPGR [EPHA8_Y616],0.501

# Tested on: c-Abl (mouse)
# Assay: as above
row,Sequence,phosphorylation enrichment
1,VRFMAYTDETF [F8_Y450],0.789
2,SVVVLYEPPEV [TP53_Y220_P219L],1.19
3,KKLHEYNTQFQ [PIK3R1_Y452],0.477
4,ALRHFYKLNII [ETV6_Y402_YF],0.84
5,NREGVYRVFAP [TGFBI_Y537_T538R],0.636
6,FQCLRYIKQLG [SAMHD1_Y146_R143C],0.809
7,NACGLYHKMNG [GATA5_Y216],0.525
8,EFFENYIEELK [PARP4_Y218_F215Y_YF],0.869
9,VSLLPYFPAIM [IPO4_Y518_A513V],0.754
10,VMAVAYRLAEQ [HK1_Y461_T457M],0.708
11,VICRRYLVMQR [IL3RA_Y328],0.618
12,SIKDKHVTALF [KCNH2_Y611_Y611H_YF],0.486
13,LDTSQYFRLFN [CPT2_Y217_M214T],0.617
14,AGTILSHAHLD [ASS1_Y291_Y291S],0.622
15,TNRSFYFKPSL [NUP153_Y382_V381F],1.35
16,SSFDTYHLSRE [KIR3DL2_Y253_I252T_YF],0.613
17,APSEFYDGDHD [HDAC3_Y414_N411S],0.932

row,Sequence,phosphorylation enrichment
1,TYAVSYLPDMS [FLNC_Y1602_T1599A],0.963
2,TDGIAYEFRVI,0.854
3,FLQEIYNSNNQ [FGG_Y140_YF],0.713
4,GNLLIYTEFGK [HGD_Y166],3.12
5,QTENKYDSVSG [EIF2AK3_Y565],0.56
6,VVPGSYDRLRV [IFT172_Y260_L257P],0.406
7,RAILDYIASKF [GSTA3_Y74_N73D_YF],0.603
8,VRTGIYHGREP [PIK3CA_Y361_G364R],0.581
9,WDSSGYWTPEE [PAPPA2_Y908_C903W],0.672
10,EWLRRYLKNGK [HLA-C_Y195_E197K],0.546
11,LANNEYFFRVC,0.698
12,FDSPFYRDSLP [TSC1_Y508],0.47
13,HNLYSYPTKYE [MYO3A_Y1396_H1400Y],2.34
14,GTAPSYGNPSS [CD19_Y378],0.589
15,SVTCTGSPALN [TP53_Y126_Y126G],0.612
16,AEPHTYEEPGR [EPHA8_Y616],0.675
